These results are taken from article PMC11964265.

As usually defined, the stoichiometry N is the number of molecules, sites or subunits per partner or assembly.

Where “and” joins values, the source holds several entries; their conditions need not be identical. Identical values can stand only once.

The target of test [1] is Cathepsin L holoenzyme from human liver (human).
Test [2] has as its target Recombinant human cathepsin K holoenzyme (human) (UniProt P43235).
Test [3] addresses Naegleria fowleri cystatin (recombinant, without signal presequence) (Naegleria fowleri (strain HB-1)). Kind of test: SEC; analytical size-exclusion chromatography, Superdex 200 Increase 10/300 GL, 20 mM Tris-HCl, 150 mM NaCl, pH 7.5; mass from calibration with Gel Filtration Standard (Bio-Rad).

Chain of Recombinant human cathepsin K holoenzyme (human) (P43235 16-329): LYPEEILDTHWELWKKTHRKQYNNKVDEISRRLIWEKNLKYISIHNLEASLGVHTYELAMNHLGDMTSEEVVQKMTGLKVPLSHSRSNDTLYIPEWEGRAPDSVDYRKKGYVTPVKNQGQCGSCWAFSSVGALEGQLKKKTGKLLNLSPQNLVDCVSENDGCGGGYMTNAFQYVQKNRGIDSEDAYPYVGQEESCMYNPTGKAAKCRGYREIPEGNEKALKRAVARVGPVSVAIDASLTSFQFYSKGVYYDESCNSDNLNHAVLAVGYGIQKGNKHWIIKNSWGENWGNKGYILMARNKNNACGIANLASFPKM
Chain of Cathepsin L holoenzyme from human liver (human) (P07711 18-333): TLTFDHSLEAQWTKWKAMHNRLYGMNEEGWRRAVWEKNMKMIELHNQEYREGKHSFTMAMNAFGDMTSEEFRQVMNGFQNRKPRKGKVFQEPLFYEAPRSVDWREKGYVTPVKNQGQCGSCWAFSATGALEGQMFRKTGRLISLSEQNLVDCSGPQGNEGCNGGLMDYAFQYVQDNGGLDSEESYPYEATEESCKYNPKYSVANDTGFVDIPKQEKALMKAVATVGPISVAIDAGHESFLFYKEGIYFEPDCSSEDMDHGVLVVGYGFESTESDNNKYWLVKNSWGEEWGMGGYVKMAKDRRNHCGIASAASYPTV

In the case of “Naegleria fowleri cystatin (recombinant, without signal presequence) (natural protein)”, the IC50 of inhibition of peptidase activity (Z-Phe-Arg-AMC cleavage), 50 nM enzyme, 5 nM – 2 µM Nf cystatin, pH 5.5 worked out at 517 nM in test [1] and 31 nM in test [2]. Besides, the stoichiometry N in test [3] is 4 and 2.
